Biological target: T1, GST-USF1 T100D (UniProt P22415 1-310, T100D)
T1 construct: USF1 with the CK2 phosphorylation site threonine 100 changed to the phospho-mimicking aspartic acid, as GST fusion; also called phospho-mimicking USF1_(T100D) mutant; source: bacterial expression, purified GST fusion protein
Test: pull-down; 10 µg purified GST fusion protein on GSH-sepharose in PBS-T (PBS pH 7.4, 1% Tween 20), 2 h at 4 °C with 7.5 µl in vitro translated [35S]methionine-labelled partner; SDS-PAGE, Coomassie, autoradiography
Conditions: one partner purified

T1 sequence (P22415 whole entry T100D, the tested form may be a part): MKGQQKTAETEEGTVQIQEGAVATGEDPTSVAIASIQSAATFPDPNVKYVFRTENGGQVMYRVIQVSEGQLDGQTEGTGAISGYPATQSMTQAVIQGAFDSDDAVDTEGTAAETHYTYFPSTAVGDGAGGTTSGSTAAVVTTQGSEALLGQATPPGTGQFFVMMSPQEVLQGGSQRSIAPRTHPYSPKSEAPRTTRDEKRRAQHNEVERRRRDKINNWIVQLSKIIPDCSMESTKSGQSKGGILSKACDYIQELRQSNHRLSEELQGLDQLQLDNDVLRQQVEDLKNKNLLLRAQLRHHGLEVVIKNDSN

B1: in vitro translated PDX-1 (pRSET-PDX-1) (natural protein)
chain: not shown
modifications: [35S]methionine labelled
notes: mouse PDX-1 cDNA cloned in frame into the BamH1/HindIII sites of pRSETA; also called wild-type PDX-1; source: in vitro translated (from pRSET-PDX-1, Promega)
fold binding against wild-type or alanine mutant USF1: 3.5 fold

Source: PMC5703852, “Functional interplay between the transcription factors USF1 and PDX-1 and protein kinase CK2 in pancreatic β-cells” (Scientific Reports, 2017)
